Measurements from patent US7179464 (Kyowa Kirin, dated 2007).

T1: human IL-5R α chain expressed on cells (human, UniProt Q01344 21-420)
T1 construct: whole, on cells; also called hIL-5R α; CTLL-2(h5R)
T1 sequence (looked up): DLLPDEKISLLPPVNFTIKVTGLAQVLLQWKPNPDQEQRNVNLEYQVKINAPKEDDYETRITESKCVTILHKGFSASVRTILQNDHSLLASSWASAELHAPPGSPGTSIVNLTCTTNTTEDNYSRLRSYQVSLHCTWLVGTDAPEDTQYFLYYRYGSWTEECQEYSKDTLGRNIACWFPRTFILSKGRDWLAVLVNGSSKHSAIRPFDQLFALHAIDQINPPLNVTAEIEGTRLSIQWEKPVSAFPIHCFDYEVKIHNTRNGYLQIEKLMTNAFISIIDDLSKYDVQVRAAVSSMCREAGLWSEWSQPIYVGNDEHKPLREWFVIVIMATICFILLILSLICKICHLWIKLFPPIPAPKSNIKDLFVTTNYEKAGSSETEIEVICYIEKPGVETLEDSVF

B1: anti-human IL-5R α monoclonal antibody KM1257 (antibody, V domains shown)
VH: EVQLVESGGDLVKPGGSLKLSCAASGFTFSDYGMAWIRQISDKRPEWVAAISSGGSYIHFPDSLKGRFTVSRDNAKNTLYLEMSGLKSEDTAMYYCARRGFYGNYRAMDYWGQGTSVTVSS
VL: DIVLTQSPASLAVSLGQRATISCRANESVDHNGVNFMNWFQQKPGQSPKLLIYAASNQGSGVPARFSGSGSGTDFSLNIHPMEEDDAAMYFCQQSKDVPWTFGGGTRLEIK
notes: Mouse IgG1; also called hybridoma KM1257 (FERM BP-5133)
B2: anti-human IL-5R α chain human CDR-grafted antibody KM8399 (antibody, human IgG1, V domains shown)
VH: EVQLVQSGAEVKKPGASVKVSCKASGYTFTSYVIHWVRQRPGQGLAWMGYINPYNDGTKYNERFKGKVTITSDRSTSTVYMELSSLRSEDTAVYLCGREGIRYYGLLGDYWGQGTLVTVSS
VL: DIQMTQSPSSLSASVGDRVTITCGTSEDIINYLNWYQQKPGKAPKLLIYHTSRLQSGVPSRFSGSGSGTDFTLTISSLQPEDFATYYCQQGYTLPYTFGQGTKVEIK
notes: also called HV.3LV.0; pKANTEX1259HV3LV0
B3: anti-human IL-5R α chain human CDR-grafted antibody KM9399 of human antibody IgG4 subclass (antibody, V domains shown)
VH: B2 VH
VL: B2 VL
notes: Same V regions as KM8399 (built from pKANTEX1259HV3LV0); also called pKANTEX1259HV3LV0γ4; transformant KM9399 (FERM BP-5647)

Columns and labels:
[1] = biological target: T1, human IL-5R α chain expressed on cells; test: immunocyte staining, flow cytometry on CTLL-2(h5R) cells
Description: (§1) Briefly, 5 ×10^5 cells obtained by transfecting a human IL-5R gene into CTLL-2 cells (ATCC TIB 214) [hereinafter referred to as "CTLL-2(h5R)"] [J. Exp. Med., 177, 1523 (1993)] or 5 ×10^5 CTLL-2 cells as a control were suspended in an immunocyte staining buffer (PBS containing 1% BSA, 0.02% EDTA and 0.05% sodium azide) and dispensed into a round bottom 96-well plate (100 μl/well). After centrifuging at 350×g for 1 minute at 4° C., the supernatant was discarded. Then, 50 μl of the immunocyte staining buffer containing 10 μg/ml of an hIL-5R α antibody were added to each well and reacted at 4° C. for 30 minutes. After the reaction, the immunocyte staining buffer was added (200 μl/well) and centrifuged at 350×g for 1 minute at 4° C. and then the supernatant was removed to wash the cells. The washing operation was further repeated twice. Thereafter, 50 μl of the immunocyte staining buffer containing FITC-labeled anti-mouse immunoglobulin antibody or FITC-labeled anti-human immunoglobulin antibody (both manufactured by Wako Pure Chemical Industries, Ltd.) diluted 30 folds with a staining buffer were added to each well and reacted at 4° C. for 30 minutes. After the reaction, a similar washing operation was repeated three times. Then, the cells were analyzed with a flow cytometer (Coulter).

[2] = biological target: T1, human IL-5R α chain expressed on cells; test: flow cytometry on CTLL-2(h5R) cells, antibody at 10 µg/ml
Description: as §1

Row | Binder | binding result [1] | binding result [2]
1 | B1 | binds | 
2 | B2 |  | binds
3 | B3 |  | binds
